Data as given in patent US8961986B2, “Peptide composition” (Apitope Technology (Bristol) Limited, priority 2000, dated 2015).

Tests used:
HLA-DR2b = target: T1, HLA-DR2b (Homo sapiens, UniProt P01903+P01911); test: Antigen presentation assay, HLA-DR2b transfected L-cells; type: cell-based
T1 construct: expressed in transfected cells; host or cells: L-cells
Source text: (§1) MBP peptides 30-44, 130-144 and 139-153 were synthesized using L-amino acids and standard F-moc chemistry on an Abimed AMS 422 multiple peptide synthesiser.
(§2) L-cells transfected with either HLA-DQ6, HLA-DR2a or HLA-DR2b, or Mgar cells (EACC, Porton Down, UK) which express HLA-DQ, DP and DR were used as APCs.
(§3) T-cell clones MS 49:D3 and MS17:A2 were generated from MS patients and clone N5:19 was generated from a normal individual. All three clones were DR2 positive.
(§4) Antigen presenting cells were incubated with the various concentrations of peptide and the appropriate T-cells. Proliferation, and therefore activation, of the T-cells was measured by [^3H]-Thymidine incorporation, and expressed as the stimulation index (SI=corrected counts per minute (ccpm) culture containing peptide/ccpm culture without peptide).

HLA-DR2a = target: T2, HLA-DR2a (Homo sapiens, UniProt P01903+Q30154); test: Antigen presentation assay, HLA-DR2a transfected L-cells; type: cell-based
T2 construct: expressed in transfected cells; host or cells: L-cells
Source text: as §1, §2, §3, §4

T2 sequence (P01903 26-254): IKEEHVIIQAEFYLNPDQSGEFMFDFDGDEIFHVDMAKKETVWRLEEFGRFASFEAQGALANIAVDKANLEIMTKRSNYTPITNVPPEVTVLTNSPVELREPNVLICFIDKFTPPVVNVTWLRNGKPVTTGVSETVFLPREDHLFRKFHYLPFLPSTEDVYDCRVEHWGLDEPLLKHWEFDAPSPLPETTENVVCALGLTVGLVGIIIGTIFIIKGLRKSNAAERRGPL
T2 sequence (Q30154 30-266): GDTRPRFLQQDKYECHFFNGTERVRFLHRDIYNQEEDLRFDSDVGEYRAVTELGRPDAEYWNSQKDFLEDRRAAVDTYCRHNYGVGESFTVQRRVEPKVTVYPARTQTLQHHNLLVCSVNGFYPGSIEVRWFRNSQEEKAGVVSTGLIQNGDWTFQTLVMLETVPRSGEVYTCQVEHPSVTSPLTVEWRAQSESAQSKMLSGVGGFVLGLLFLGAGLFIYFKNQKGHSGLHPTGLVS
T1 sequence (P01903 26-254): as the sequence (P01903 26-254) above
T1 sequence (P01911 30-266): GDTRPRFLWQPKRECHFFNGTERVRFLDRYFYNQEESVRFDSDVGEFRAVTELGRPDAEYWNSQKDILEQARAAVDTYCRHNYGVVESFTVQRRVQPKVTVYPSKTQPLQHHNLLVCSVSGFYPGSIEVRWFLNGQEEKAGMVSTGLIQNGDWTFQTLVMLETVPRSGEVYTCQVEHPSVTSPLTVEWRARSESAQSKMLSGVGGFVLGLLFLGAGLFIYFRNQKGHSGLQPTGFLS

- proliferation of N5:19 T-cell clone, HLA-DR2b transfected L-cells (HLA-DR2b): not
- proliferation of N5:19 T-cell clone, HLA-DR2a transfected L-cells (HLA-DR2a): stimulated proliferation
Substance: MBP 139-153: MBP peptide 139-153 synthesized using L-amino acids (RPSQRHGSKYLATAS)
